Reference: the domain aggregation screens of Martell et al. (2025)

Assay: soluble fraction after stress (log2 fold change); higher = more stays soluble; pooled small domains, quantitative proteomics
Details: stress: 50 degC
In short: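 Custom libraries of small protein domains were pooled and measured in a high-throughput format, with quantitative proteomics as the read-out. Each library was stressed at 50°C. The value is the log2 fold change in the amount of each protein that stays soluble after stress, used as a measure of aggregation propensity; higher values mean more of the protein stays soluble.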

Sequence | soluble fraction (log2)
HMSNNLAYSQFLDRVKNKEIRKVEIRGQSIVGYTSNNETFKTYAPLNDPKMYDELLTNDVQVQVDPP | 0.0519
HMSNQLAVPDVTNMKANAAADRLRQQGLRVELKTESSNTVPRGMAIRTDPAASTMVARGGRVTLIISSGKG | -0.000921
HMSNSGFVKNNGKTEFYDASGRQAKSSWINISGKWYYFDLNGTMVTGWQRISNKWYYFLEDGSK | 0.0383
HMSNSMISKDKAMSIALAKVSGATSSNIYIELEKDDGRYTYEGEINFNNKEYEFEIDAYTGNILKWEVDSI | -0.333
HMSNTPHSREVLLEMDAVRRLLAVGEEKGEVDRADLQGAFEEAELGRGDLDGVLSILREYDVPLAR | 0.0709
HMSNVIYFNYNDYKFLFMGDAGVDKETDILEKYTLSNIDFLKVGHHGSDTSSNKGFIDSIQPKYSLIS | -1.07
HMSNWTILIIQGSAHLIDLDSKITEIDGFGSFPTKILQDYNLNEEFEIFDTNVKMVNSVQSDLQSN | -2.56
HMSNYIVELSSSEKIDDIDNNNNLINSFFSKSDSQWEYKLVFKNKNEMDVFVKKISTNNKIISYKTSS | 0.149
HMSPAETGIYHILVENGKPNRHGLDATNKNENWLRQFLITQNTRLEDVFLLLADDGGGIRFFKSQ | -0.498
HMSPAPVSVDHLAFPTRDLEATDHFYSKVVGATLVHAESGYSPSWKSDYLLITYALPDGTRLSFFDWP | 0.0261
HMSPDTREAILAAARTAFARDGYQTSLRGIARDAGVDPALVHHYFPDRATLFAKAVIESTAG | -0.00189
HMSPFAHHLHELRMRHGIRQNELAELIGYDQTYISALEVGLKGPPTPEFVDKLVEGLALSRTEEAALRSAA | -0.482
HMSPFYALDEVDSFLDGVNVERLAALIARQAEQAQFLVVSHRRPMIGASTRTIGVTQARGAHTQVVGLP | -0.25
HMSPGAKIEVTGNTVNLRAGPGTNYDTRGQVKKGEQLPLLGEQGGWYRVQTSRGVAYLAGWLARVLT | 0.0409
HMSPLDSHLGRRIALRRQQLNTSAADLEKAISMVPGSVARFEAGRQSLNATQLFTLSRALDVPVLYFFEG | -0.534
HMSPREDQQSRKQHILEAAAVLFAERGYYKTTTADVARAVGVTQPYVFHFFKSKEELYLAVL | -0.0115
HMSPSDLSAEAQKVYALLDGRELSFDTLVEESGFDTGSLLAILMRLEMKMLVEHGADQVYRRSG | -0.58
HMSPVKAPLPGVVLDIHVSVGQEVKASDTVVTLEAMKMENAIKAGVDGKVASISVGKGDSVLEGAVLLTI | 0.0738
HMSQAVTMLKAGRLLANSKGTGAAVRDLEPGMLLYPTGQKDGTMWEVEDEMGNKGWVNSTSMQLA | 0.188
HMSQDEKITNYIYEGNKNTQTEAFVEAEKSYRKALSLSPEKPEALYNLGNTHFLDKQYDEASQRFF | 0.0647
HMSQDINVFIKTNPENATIIWDGESKGTNGIFKSNAGAHRLRIEMQGYESIDQDIQVSDKQFSFEYNLKKE | 0.152
HMSQIANLLLSKNIKVNNQNIIYYETVLKYLPNNEKKEFFINAMKNNIYFTEEEIKNFGNIFN | -1.66
HMSQIQIKLDQAIMQLPEKQRFVFMLRYFEELPYEKIAQITETSIGGAKANFHQALKKMQEIIQ | -2.96
HMSQKVQEDFLGDIRKNEIAVTVFLINGVKLQGVITWFDDASILLRRDGHTQLIYKHAVSTIMPGVAVDI | -0.118
HMSQLYINATDDGWVIGNLPADAREVLLTTLGGQVVARYHVTAPSLRVKAPRKGVYIVSVETA | -1.12
HMSQQVVTDGVNLRLRYAPSPDAETYKWADGTNRHPEKGERFPYLGDIGDFYRIDYKGLVLYVSKQHTHL | -1.85

Sequence | soluble fraction (log2)
HMSQRITYTEFVQMVKDDKVEKVEVGANQYNITPKSDDKTLVKMTYYTGFIKDENLLDLLNKHKVEIDGYI | 0.157
HMSQSIGQEKALSIALADAGVQKENALGLEVKGEYDDGQLLYEVEFRAGGVEYEYEVRASDGRIVKAERD | 0.13
HMSQSMEVLYTDLTDKDAAAIVEKLEEEKIPYQLEDQGTTILVPPGVKYTTRLKLAAEDLPKG | 0.000352
HMSQYVPDPVLNAALVGYLDFRKQAGKPMTDYSIRLLLVDLAKLSGNPQEQAAILDQSTKNNWIGVYALG | -2.87
HMSRAARLALDALPDEWAQFAESRGLAGSAMAETWETFRDYWQAQPGQKGVKADWAATWRNWVRRETQNRG | -0.167
HMSRDYKTELQERLQVNGPVKIEYQVIAEDESKPSFKVQLLVNDKKISEGQGRNKKAAEQQAAQAAL | 0.0625
HMSREEFLTELRKALQGRVSQQTVNDNLRYYEEYILTESHKGKTEAEVIAELGNPRLLAKSIIDAENAT | 0.107
HMSRESNISTGRQLLEAQLPTWGYKKVEDIPSKQMKTALDAFNYKDVESLLQGLGEGSVALTTALRRLMP | 0.313
HMSRFLEGILQRRAGGKNYFVPDDGSNPIFIADRNSAGAANGDRVRIAQFARRPRSGPEGEVVEILKRAK | -0.00665
HMSRGAIVTGTVIEKNQSGIYVDLGYKSDGIVPIEEFDGEESKYNVGDQIRVYVKKVDDGHGQLML | 0.126
HMSRGTRIDPNWQPSPEDRALARAEGFSDPEIDREALQFRDYWLGASGSNAVKLDWSATWRNWVRRAATNF | 0.0774
HMSRKERERSQHRRDILAAGEKIFAQKGYFNATIEEIAREAEFSVGTIYNFFSNKETLYQEIIRSI | -0.298
HMSRLQDAELQAQIDKMAGAMQLRDIPVYVQDIPTINGLAAPDGRVFITQGFIDKYKLGEVSAGEIASVI | 0.36
HMSRPLISNMLRLLNLPPTVQRKVAAGVISAGHARALLGLNDEKEIEKLANRIVAEGLSVRATEEIVAIA | -0.937
HMSRWHEFLNKSEDGMKELDEQNQKVLTLLILQRFYQTPFQAKEDEEFYREFFERLSSVNEILG | 0.0126
HMSSAYLTVRGIDIDVIYKDIKNLHIAVYPPFGRVRVAAPSHLDDDQVRLAVIQRLTWIKRQRERLRST | -1.41
HMSSDEAEYKLLLGQEGVAKSPLRPSGVVDFSGRRLDVQTLGDFIESGETVVVKQVNGHRVLVERK | 0.158
HMSSDEEQLATLTRLLQKQEQIIQTLGPRNPMVSLQQYANTITKVIEMAGFKDTSQFINSQIP | -0.0471
HMSSDLESVIGTHSQEANFALRSWGWIQPDETWKNLRPDQVSQILERANEFMAKAIESFANAQSE | -0.14
HMSSDLLGVRVRRARARAGLTRRRLSLLSGVSERFLAQLESGQGNISIVLIRRVAAALGAELVELIGS | -0.74
HMSSEDTQSRDRARKELSNEMSRIMKRYGLDYQPRDNADDIMNRLKAAGADENTLAYVQEKLK | 0.134
HMSSEITYDKFIEMVDKDQVKEVTLQSGVLTVVPKIQKSYYQNASYKVNQMEDVDALTKRLEGTGIVFHY | -0.0487
HMSSEITYDKFIEMVEEGNVKEVTLQSDTLTIKPKHQDSAFSEKEYYTRQMESADQLTERLEGTGIEFHS | 0.104
HMSSEQRSVLFPNLAETDKVAVIEALMAAGVNARVDSASGRVTVPSGDYYNSRAILAAQGLPTS | 0.0696
HMSSETTVPAVVGIKEDKARQLASEQGLRLRVKSREESADVEEGIIISQDPNSNTKVKKGDEIEVVVS | 0.254
HMSSFSESFHKALNNLDDKHKSVFSLRHFEGFSMKEIAETLNINEGTVKSRLFYATKTLAGALKEF | -2.74

Sequence | soluble fraction (log2)
HMSSGKTGTITLQPKQTVYGITKQYKISEADLRKLNPQLDSNLKIGDKITLPLDNIQRYSDSSSNVAQT | 0.211
HMSSGLLTVQEQRILEHLANGERNGDIAGRLHISEGTVKWHLHNMYRKLDAATRTQAVARARALRL | -0.109
HMSSIGERISDVRKARGYTQDQLAERIHVSRQTISHWENERALPDFESIKQLSQVLGYDFSS | -0.00328
HMSSIHQDAKQQLHEYIRTYIQPLMRAGKQVTVWDIIGHVTIRKPKLVQKIGTQQLINMVQDLLE | -0.213
HMSSKSDQLYLQLRRRISAMKDGEPFPTVRQLMTEYQVSQSTVTPAINQLKEKGLIEAYVGRGSFVSKK | -0.615
HMSSKTKVEDLGLSTRTLNALIGGSIKTAGGLTRKSESDLLSLDGLGEKGITEIKEALENIGLSLK | 0.215
HMSSLKKISIDELSPGMYVHSIVEQKGSVKIKSQGKVLKQAVVDALRKRGVKTLLIDLSKQFNPETGEP | -0.0124
HMSSLTPRETEVLSRMAQGDANTSIAERLVITEKAVQKHINAIFAKLGLAEEPTSARRVLAVLAFLR | -0.512
HMSSLTQREYEIAELVADGLSNKAIAAELSISHTTAARHVANIMNKLGFNSRSQIAAWVADRAQG | 0.11
HMSSNLSLHKEGNKIVILGLEGKSVIEVYDLMGRLLSSQTNYNPKQEITLLQPVIIRVTDTQQTKSFKV | -0.83
HMSSNLTVFTRNNAIIVNSDVVRKLNVFAVDGRLVRSVDLSVGENVINNISRGMYLIDKQKVVV | -0.353
HMSSPDMSLLYSELDVKDSGQIVTILEQRNIPYEVRNNGSQIYIPSNNVQRIRLSLAQEGLPSG | -0.0716
HMSSPTAKATGSSVNIRKSASTGAAVLKRVEKGTVLEAVSISDGWVKVKYSGVTGYVSADYVKVSGL | -0.354
HMSSQGQNTKTGTVTASALYVRSGAGTNYSQIGYLLKNTKVEIVGQTGSWYKIKFGSGTGYVSSKYIK | -0.652
HMSSQLETTFATLIGKRVSIRLHDPEGGFRDILGHLESPYSLRNRHGNLIEFAHDQIFLWREVI | -0.951
HMSSRNLIIFYDSPQAENALLATAERYGAILLHHYRNLHGIAVAIPADKDMAQAVTYFSRQPGVRQV | -0.803
HMSSSKVAISQFEELVDQGQVREVVIEGSTATGTTAAGRRFAAEIPPGGMELFLSKLDDAGTTYEYSPP | ≥ 0.62
HMSSSYTEMQLDKLKKLLEKETLLSSEKSELKSLIHDFDKIPEVVSPLIVGEYLRLKNKYIAVINSLE | -0.214
HMSSSYTEMQLERFKELLNKETLLSSEKNELKNLISDFDKISEIVSPLVVGAYLQLKNEHIETINSLG | -0.192
HMSSTAIQAMIRRLIDGEDPRKPLSDARLAETLKASGVPVARRTVAKYRESMSIPSSQDRLRI | -0.156
HMSSTSTKTQNIVHIVKSGETLSAIASKYGVSVDNIKKWNNLSSDKLSIGQKLKINPTTQTSS | 0.245
HMSSVEEILQTLGGRIRTQRLAQGISQQVLADRAGLSLGAVRQLEGSGQSGLDTLVRVLFVLGIVDEL | -2.21
HMSSVHTMEVKSTTQIKVLDENKNLSSYYSMKNPVSFNYRLFFLNQDELKKLQEDLKTNNDIQSIDIKYA | -0.753
HMSTALTPLTTREREVLALMAEGLTNSGIAARLVLTDRTVETHVSRILHKLGLGETTTNEHRRVLAVLRYL | -1.5
